Laboratory results: patent publication US20250076311A1 (Chugai, published 2025)

T1: Human latent myostatin (human, UniProt O14793 25-266; O14793 267-375)
T1 construct: Biotinylated in the ELISAs; also called human myostatin latent form
T1 sequence 1: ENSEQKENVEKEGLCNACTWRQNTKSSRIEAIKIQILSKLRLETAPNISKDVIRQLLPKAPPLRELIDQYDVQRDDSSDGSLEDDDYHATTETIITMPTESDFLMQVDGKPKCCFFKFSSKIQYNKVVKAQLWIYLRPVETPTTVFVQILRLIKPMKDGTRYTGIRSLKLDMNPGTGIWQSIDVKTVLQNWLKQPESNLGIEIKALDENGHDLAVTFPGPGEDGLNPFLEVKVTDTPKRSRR
T1 sequence 2: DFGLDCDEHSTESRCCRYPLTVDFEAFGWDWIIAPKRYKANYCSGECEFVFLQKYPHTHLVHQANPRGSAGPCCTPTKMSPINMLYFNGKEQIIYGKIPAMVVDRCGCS

T2: cynomolgus monkey FcγRIIa1 extracellular domain, His-tagged (cynomolgus monkey)
T2 construct: also called cyno FcγRIIa1; cynoFcgRIIa1; not shown: C-terminal His-tag
T2 chain: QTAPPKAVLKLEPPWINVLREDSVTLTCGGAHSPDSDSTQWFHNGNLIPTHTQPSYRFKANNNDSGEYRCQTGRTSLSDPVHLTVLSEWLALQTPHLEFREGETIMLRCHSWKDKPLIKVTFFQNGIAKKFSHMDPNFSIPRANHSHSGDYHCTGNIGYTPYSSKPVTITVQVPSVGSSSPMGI

T3: cynomolgus monkey FcγRIIa3 extracellular domain, His-tagged (cynomolgus monkey)
T3 construct: also called cyno FcγRIIa3; cynoFcgRIIa3; not shown: C-terminal His-tag
T3 chain: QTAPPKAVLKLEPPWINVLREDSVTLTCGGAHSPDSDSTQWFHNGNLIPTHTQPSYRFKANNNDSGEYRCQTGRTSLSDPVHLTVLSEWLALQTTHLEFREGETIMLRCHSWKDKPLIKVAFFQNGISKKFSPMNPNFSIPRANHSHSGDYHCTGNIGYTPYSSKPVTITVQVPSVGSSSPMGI

T4: human FcγRIIb extracellular domain, His-tagged (human, UniProt P31994 43-217)
T4 construct: also called FcgRIIb (human); not shown: C-terminal His-tag
T4 sequence: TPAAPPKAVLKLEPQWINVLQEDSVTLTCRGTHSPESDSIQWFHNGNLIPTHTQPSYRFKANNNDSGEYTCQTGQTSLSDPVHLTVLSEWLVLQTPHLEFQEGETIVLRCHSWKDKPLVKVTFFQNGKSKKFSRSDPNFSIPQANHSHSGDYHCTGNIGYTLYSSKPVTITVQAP

T5: cynomolgus monkey FcγRIIb extracellular domain, His-tagged (cynomolgus monkey)
T5 construct: also called cyno FcγRIIb; cynoFcγRIIb; not shown: C-terminal His-tag
T5 chain: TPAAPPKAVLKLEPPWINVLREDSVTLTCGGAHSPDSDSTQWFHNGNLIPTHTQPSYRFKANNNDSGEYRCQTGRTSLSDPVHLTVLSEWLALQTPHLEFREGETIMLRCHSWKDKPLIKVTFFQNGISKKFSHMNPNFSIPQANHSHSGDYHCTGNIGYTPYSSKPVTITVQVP


Key:
[1] = target: T1, Human latent myostatin; experiment: Western blot with the antibody as probe on GST-tagged 100-amino-acid fragments of the human latent myostatin propeptide expressed in E. coli BL21 (lanes 1-8), GST control (lane 9) and human latent myostatin 100 ng (lane 10)
From the text: Fragments of the N-terminal propeptide coding region of human latent myostatin were cloned into a pGEX4.1 vector so as to produce GST tagged propeptide fragments of 100 amino acid each, with 80 amino acid overlap (FIG. 22A). Protein expression was induced in transformed BL21 competent cells with Overnight Express Autoinduction System (Merck Millipore) and protein was extracted using the BUGBUSTER® protein extraction reagent (Novagen).

[2] = target: T2, cynomolgus monkey FcγRIIa1 …; experiment: SPR Biacore, antibody captured, FcgR analyte
[3] = target: T3, cynomolgus monkey FcγRIIa3 …; experiment: SPR Biacore, antibody captured, FcgR analyte
[4] = target: T4, human FcγRIIb extracellular domain, …; experiment: SPR Biacore, antibody captured, FcgR analyte
[5] = target: T2, cynomolgus monkey FcγRIIa1 …; experiment: SPR Biacore, KD(SG1)/KD(variant)
[6] = target: T5, cynomolgus monkey FcγRIIb extracellular …; experiment: SPR Biacore, KD(SG1)/KD(variant)
[7] = target: T3, cynomolgus monkey FcγRIIa3 …; experiment: SPR Biacore, KD(SG1)/KD(variant)

Row | binding result [1] | Kd [2] | Kd [3] | Kd [4] | KD fold (SG1 = 1) [5] | KD fold (SG1 = 1) [6] | KD fold (SG1 = 1) [7] | Binder
1 | binds | – | – | – | – | – | – | MST1538 (antibody, human IgG1, kappa, V domains shown, Constant regions as for MST1504) VH: QSLEESGGGLVKPGGTLTLTCKASGIDFSSYYYMCWVRQAPGKGLEWIACIYAGISGSTYYASWAKGRFTISKTSSTTVTLQMTSLTAADTATYFCARDPYHFDYGSLWGPGTLVTVSS VL: ALVMTQTPASVSAAVGGTVTINCQASQSVYGGNELSWYQQEPGQPPKLLIYSASKLASGVPSRFKGSGSGTQFTLTISGVQCDDAAAYYCAGYRTYSDDDNAFGGGTKVEIKR
2 | binds | – | – | – | – | – | – | MST1572 (antibody, human IgG1, kappa, V domains shown, Constant regions as for MST1504) VH: QSVEESGGRLVTPGTPLTLTCTVSGFSLSSYAMSWVRQAPGKGLEWIGIIYGVGSTYYASWAKGRFTISKTSTTVDLKIASPTTEDTATYFCARDDYGWGYTNLWGPGTLVTVSS VL: QVLTQTPSSVSAAVGGTVTINCQSSQSVYNNNYLAWFQQKPGQPPKLLIYDASKLASGVPSRFKGSGSGTQFTLTISGVQCDDAATYYCQGSYYSSGWYRAFGGGTKVEIKR
3 | – | 3.5 µM | 16 µM | 5.1 µM | 0.9 fold | 0.9 fold | 1.1 fold | M103205H795-MY010/M103202L889-SK1 (antibody, human IgG1, kappa, name in EU numbering, Substitution introduced into M103205H795-SG1; EU numbering) heavy: not shown light: DIVMTQSPATLSLSPGERATLSCTSSQSVYHANWLSWFQQKPGQPPKLLIYWASTLAYGVPSRFSGSGSGTDFTLTISSLQPEDAATYYCAGGYGGGRYAFGQGTKVEIKRTVAAPSVFIFPPSDEQLKSGTASVVCLLNNFYPREAKVQWKVDNALQSGNSQESVTEQDSKDSTYSLSSTLTLSKADYEKHKVYACEVTHQGLSSPVTKSFNRGEC
